We go through 1 molecule from patent publication US9382305B2, “Relaxin fusion polypeptides and uses thereof” (BAYER INTELLECTUAL PROPERTY GMBH, priority 2011, dated 2016).

The test system of test [1] is isolated perfused rat heart. Briefly: Isolated perfused rat heart (Langendorff). The arrangement: species or system Wistar rats. The method, then: Male Wistar rats (200-250 g) were anesthetized using Narcoren (100 mg/kg i.p.). The heart was rapidly excised and connected to a Langendorff perfusion system (FMI GmbH, Seeheim-Ober Beerbach, Germany). The heart was perfused at a constant rate of 10 ml/min with Krebs-Henseleit bicarbonate buffer solution equilibrated with 95% O2-5% CO2. The perfusion solution contained (in mmol/l): NaCl 118; KCl 3; NaHCO3 22; KH2PO41,2; MgSO4 1,2; CaCl2 1,8; Glucose 10; Na-Pyruvat 2. A pressure transducer registered the perfusion pressure in the perfusion system. The left ventricular pressure (LVP) was measured using a second pressure transducer connected to a water-filled balloon which was inserted into the left ventricle via the left atrium. The end diastolic pressure was initially set to 8 mm Hg by adjusting the volume of the balloon. The hearts were spontaneously beating. The signals from the pressure transducer were amplified, registered and used for the calculation of the heart frequency and +dp/dt by a personal computer.

Test [2] deals with T1, human LGR7/RXFP1 receptor (Homo sapiens, UniProt Q9HBX9).
T1 construct: cloned as 2271 base pair long DNA fragment; expressed in transfected cells; host or cells: CHO K1 (ATCC CCL-61) with CRE-luciferase reporter; receptor in pcDNA3.1(-)
T1 sequence (Q9HBX9 1-757): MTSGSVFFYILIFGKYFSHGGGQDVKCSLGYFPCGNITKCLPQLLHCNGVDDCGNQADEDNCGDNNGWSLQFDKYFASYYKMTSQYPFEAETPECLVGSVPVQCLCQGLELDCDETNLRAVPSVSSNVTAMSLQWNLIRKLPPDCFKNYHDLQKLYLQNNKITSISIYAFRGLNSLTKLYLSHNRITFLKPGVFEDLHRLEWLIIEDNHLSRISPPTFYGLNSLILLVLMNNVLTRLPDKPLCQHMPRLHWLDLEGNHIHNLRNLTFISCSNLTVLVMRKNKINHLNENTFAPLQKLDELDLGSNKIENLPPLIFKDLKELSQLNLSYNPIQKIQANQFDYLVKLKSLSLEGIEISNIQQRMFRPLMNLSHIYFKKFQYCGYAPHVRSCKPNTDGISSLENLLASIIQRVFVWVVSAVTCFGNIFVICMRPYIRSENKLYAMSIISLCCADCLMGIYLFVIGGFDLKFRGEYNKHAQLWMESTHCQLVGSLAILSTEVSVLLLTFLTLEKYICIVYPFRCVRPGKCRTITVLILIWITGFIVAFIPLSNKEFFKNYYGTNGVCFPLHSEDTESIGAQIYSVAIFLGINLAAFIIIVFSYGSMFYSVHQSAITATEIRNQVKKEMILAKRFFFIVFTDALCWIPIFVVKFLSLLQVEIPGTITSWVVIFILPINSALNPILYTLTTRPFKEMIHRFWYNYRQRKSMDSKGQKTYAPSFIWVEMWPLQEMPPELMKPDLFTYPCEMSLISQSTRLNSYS
Briefly: Relaxin activity of plasma samples from scR-Fc 13 treated rats on CHO-CRE-LGR7 cell line. In kind it is cell-based. Particulars: plasma 3, 5 and 7 days after intravenous administration to rats. Here is the method: Relaxin activity in blood samples obtained from scR-Fc 13 treated rats by using the CHO-CRE-LGR7 cell line was determined. Blood samples collected 3, 5, and 7 days after intravenous administration of scR-Fc 13 were incubated on the CHO-CRE-LGR7 cell line and Relative Lights Units were determined. Calibration curves were determined using hRelaxin 2 (R&D Systems, catalogue number 6586-RN-025) and purified scR-Fc 13. The EC50 within the dose response curve is marked by an X. Data are expressed as Relative Light Units, representing the activity of scR-Fc variants and hRelaxin 2 induced luciferase expression. Symbols represent means, error bars represent S.E.M.

B1: scR-Fc 13: rat IgG2b Fc (6 Histidine tag) linked via GlyGlySerGlyGlySerGlyGlySerPro to N terminal end of scR4; SEQ ID NO: 28 (protein)
chain: HHHHHHPTCPTCHKCPVPELLGGPSVFIFPPKPKDILLISQNAKVTCVVVDVSEEEPDVQFSWFVNNVEVHTAQTQPREEQYNSTFRVVSALPIQHQDWMSGKEFKCKVNNKALPSPIEKTISKPKGLVRKPQVYVMGPPTEQLTEQTVSLTCLTSGFLPNDIGVEWTSNGHIEKNYKNTEPVMDSDGSFFMYSKLNVERSRWDSRAPFVCSVVHEGLHNHHVEKSISRPPGKGGSGGSGGSPQLYSALANKCCHVGCTKRSLARFCGGGSGGGSGSWMEEVIKLCGRELVRAQIAICGMSTWS
With B1, in test [1] (perfusion, FIG. 11), the coronary flow result is recorded as “significant increase”, the heart rate result is on record as “significant increase”, the “left ventricular diastolic pressure” value is listed as “decrease” and the “left ventricular pressure (+dp/dtmax)” value is given as “decrease”. Further, the “effects on heart rate, coronary flow and contractility compared with hRelaxin 2” value in test [1] (ten fold higher concentration than hRelaxin 2 (1 nM)) is “Comparable effects”. Further, in test [2], the “activity of plasma samples” value is “activity could be determined”.
